{"source": "patent US20050112126A1", "about": "(Genentech, published 2005)", "binders": {"B1": {"name": "pY0192 VL W96A (Fab, V domains shown)", "VH": "EVQLVESGGGLVQPGGSLRLSCAASGYTFTNYGINWVRQAPGKGLEWVGWINTYTGEPTYAADFKRRFTFSLDTSKSTAYLQMNSLRAEDTAVYYCAKYPHYYGSSHWYFDVWGQGTL", "VL": "DIQLTQSPSSLSASVGDRVTITCRANEQLSNYLNWYQQKPGKAPKVLIYFTSSLHSGVPSRFSGSGSGTDFTLTISSLQPEDFATYYCQQYSTVPATFGQGTKVEIKR"}, "B2": {"name": "pY0192 VH N31A (Fab, V domains shown)", "VH": "B1 VH with N31A", "VL": "B1 VL with A96W"}, "B3": {"name": "pY0192 VH Y32A (Fab, V domains shown)", "VH": "B1 VH with Y32A", "VL": "B1 VL with A96W"}, "B4": {"name": "pY0192 VH S106A (Fab, V domains shown)", "VH": "B1 VH with S106A", "VL": "B1 VL with A96W"}, "B5": {"name": "pY0192 VH Y99A (Fab, V domains shown)", "VH": "B1 VH with Y99A", "VL": "B1 VL with A96W"}, "B6": {"name": "pY0192 VH W50A (Fab, V domains shown)", "VH": "B1 VH with W50A", "VL": "B1 VL with A96W"}, "B7": {"name": "pY0192 VH N52A (Fab, V domains shown)", "VH": "B1 VH with N52A", "VL": "B1 VL with A96W"}, "B8": {"name": "pY0192 VH W108A (Fab, V domains shown)", "VH": "B1 VH with W108A", "VL": "B1 VL with A96W"}, "B9": {"name": "pY0192 VH H101A (Fab, V domains shown)", "VH": "B1 VH with H101A", "VL": "B1 VL with A96W", "notes": "Ala-scan variant of pY0192; Fab on phage"}, "B10": {"name": "pY0192 VH E57A (Fab, V domains shown)", "VH": "B1 VH with E57A", "VL": "B1 VL with A96W", "notes": "as for B9"}, "B11": {"name": "pY0192 VH T28A (Fab, V domains shown)", "VH": "B1 VH with T28A", "VL": "B1 VL with A96W", "notes": "as for B9"}, "B12": {"name": "pY0192 VH R66A (Fab, V domains shown)", "VH": "B1 VH with R66A", "VL": "B1 VL with A96W", "notes": "as for B9"}, "B13": {"name": "pY0192 VH G56A (Fab, V domains shown)", "VH": "B1 VH with G56A", "VL": "B1 VL with A96W", "notes": "as for B9"}, "B14": {"name": "pY0192 VH A62S (Fab, V domains shown)", "VH": "B1 VH with A62S", "VL": "B1 VL with A96W", "notes": "as for B9"}, "B15": {"name": "pY0192 VH T53A (Fab, V domains shown)", "VH": "B1 VH with T53A", "VL": "B1 VL with A96W", "notes": "as for B9"}, "B16": {"name": "pY0192 VH D111A (Fab, V domains shown)", "VH": "B1 VH with D111A", "VL": "B1 VL with A96W", "notes": "as for B9"}, "B17": {"name": "pY0192 VH P58A (Fab, V domains shown)", "VH": "B1 VH with P58A", "VL": "B1 VL with A96W", "notes": "as for B9"}, "B18": {"name": "pY0192 VH T30A (Fab, V domains shown)", "VH": "B1 VH with T30A", "VL": "B1 VL with A96W", "notes": "as for B9"}, "B19": {"name": "pY0192 VH I51A (Fab, V domains shown)", "VH": "B1 VH with I51A", "VL": "B1 VL with A96W", "notes": "as for B9"}, "B20": {"name": "pY0192 VH F29A (Fab, V domains shown)", "VH": "B1 VH with F29A", "VL": "B1 VL with A96W", "notes": "as for B9"}, "B21": {"name": "pY0192 VH P100A (Fab, V domains shown)", "VH": "B1 VH with P100A", "VL": "B1 VL with A96W", "notes": "Ala-scan variant of pY0192; Fab on phage; also called P1OOA"}, "B22": {"name": "pY0192 VH G26A (Fab, V domains shown)", "VH": "B1 VH with G26A", "VL": "B1 VL with A96W", "notes": "as for B9"}, "B23": {"name": "pY0192 VH F64A (Fab, V domains shown)", "VH": "B1 VH with F64A", "VL": "B1 VL with A96W", "notes": "as for B9"}, "B24": {"name": "pY0192 VH S105A (Fab, V domains shown)", "VH": "B1 VH with S105A", "VL": "B1 VL with A96W", "notes": "as for B9"}, "B25": {"name": "pY0192 VH D63A (Fab, V domains shown)", "VH": "B1 VH with D63A", "VL": "B1 VL with A96W", "notes": "as for B9"}, "B26": {"name": "pY0192 VH H107A (Fab, V domains shown)", "VH": "B1 VH with H107A", "VL": "B1 VL with A96W", "notes": "as for B9"}, "B27": {"name": "pY0192 VH K65A (Fab, V domains shown)", "VH": "B1 VH with K65A", "VL": "B1 VL with A96W", "notes": "as for B9"}, "B28": {"name": "pY0192 VH N35A (Fab, V domains shown)", "VH": "B1 VH with N35A", "VL": "B1 VL with A96W", "notes": "as for B9"}, "B29": {"name": "pY0192 VH G33A (Fab, V domains shown)", "VH": "B1 VH with G33A", "VL": "B1 VL with A96W", "notes": "as for B9"}, "B30": {"name": "pY0192 VH A61S (Fab, V domains shown)", "VH": "B1 VH with A61S", "VL": "B1 VL with A96W", "notes": "as for B9"}, "B31": {"name": "pY0192 VH F110A (Fab, V domains shown)", "VH": "B1 VH with F110A", "VL": "B1 VL with A96W", "notes": "as for B9"}, "B32": {"name": "pY0192 VH I34A (Fab, V domains shown)", "VH": "B1 VH with I34A", "VL": "B1 VL with A96W", "notes": "as for B9"}, "B33": {"name": "pY0192 VH G104A (Fab, V domains shown)", "VH": "B1 VH with G104A", "VL": "B1 VL with A96W", "notes": "as for B9"}}, "note": "Positions count from the first letter of the chain named. In names and notes the source's numbering stands.", "data": [{"molecular_target": "T1, VEGF (human, UniProt P15692-4 27-191, limits assumed)", "T1 construct": "Biotinylated in the KDR-IgG ELISA, amine-coupled to the chip in BIAcore; also called biotinylated VEGF; vascular endothelial growth factor", "T1 sequence (P15692 other isoform, or with tags, fused parts or gaps limits assumed)": "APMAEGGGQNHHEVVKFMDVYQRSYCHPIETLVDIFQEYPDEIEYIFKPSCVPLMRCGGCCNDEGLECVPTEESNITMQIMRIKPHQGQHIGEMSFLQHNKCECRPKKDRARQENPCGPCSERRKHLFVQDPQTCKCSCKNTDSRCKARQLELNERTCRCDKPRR", "assay": "competitive phage-ELISA, relative to pY0192", "method": "In such an assay, phages were first serially diluted to determine a fractional saturation titer which was then held constant and used to incubate with varying concentrations of VEGF (starting at 200 nM to 0 nM) in solution. The mixture was then transferred onto plate precoated with VEGF (2 μg/mL) and blocked with 5% instant milk, and allowed to equilibrate for 1 hour at room temperature. Thereafter, the phage solution was removed and the remaining bound phages were detected with a solution of rabbit anti-phage antibody mixed with goat anti-rabbit conjugate of horse radish peroxidase. After an hour incubation at room temperature, the plate was developed with a chromogenic substrate, o-phenylenediamine (Sigma). The reaction was stopped with addition of ½ volume of 2.5 M H₂SO₄. Optical density at 492 nm was measured on a spectrophotometric plate reader.\nIC50's were determined in a competitive phage-ELISA assay.", "values": [{"binder": "B1", "IC50 (mut)/IC50 (wt)": "> 150"}, {"binder": "B2", "IC50 (mut)/IC50 (wt)": "> 150"}, {"binder": "B3", "IC50 (mut)/IC50 (wt)": "> 150"}, {"binder": "B4", "IC50 (mut)/IC50 (wt)": "> 150"}, {"binder": "B5", "IC50 (mut)/IC50 (wt)": "> 150"}, {"binder": "B6", "IC50 (mut)/IC50 (wt)": "> 150"}, {"binder": "B7", "IC50 (mut)/IC50 (wt)": "> 150"}, {"binder": "B8", "IC50 (mut)/IC50 (wt)": "> 150"}, {"binder": "B9", "IC50 (mut)/IC50 (wt)": "4 ratio"}, {"binder": "B10", "IC50 (mut)/IC50 (wt)": "2 ratio"}, {"binder": "B11", "IC50 (mut)/IC50 (wt)": "1 ratio"}, {"binder": "B12", "IC50 (mut)/IC50 (wt)": "1 ratio"}, {"binder": "B13", "IC50 (mut)/IC50 (wt)": "1 ratio"}, {"binder": "B14", "IC50 (mut)/IC50 (wt)": "1 ratio"}, {"binder": "B15", "IC50 (mut)/IC50 (wt)": "9 ratio"}, {"binder": "B16", "IC50 (mut)/IC50 (wt)": "2 ratio"}, {"binder": "B17", "IC50 (mut)/IC50 (wt)": "1 ratio"}, {"binder": "B18", "IC50 (mut)/IC50 (wt)": "1 ratio"}, {"binder": "B19", "IC50 (mut)/IC50 (wt)": "4 ratio"}, {"binder": "B20", "IC50 (mut)/IC50 (wt)": "16 ratio"}, {"binder": "B21", "IC50 (mut)/IC50 (wt)": "38 ratio"}, {"binder": "B22", "IC50 (mut)/IC50 (wt)": "2 ratio"}, {"binder": "B23", "IC50 (mut)/IC50 (wt)": "1 ratio"}, {"binder": "B24", "IC50 (mut)/IC50 (wt)": "1 ratio"}, {"binder": "B25", "IC50 (mut)/IC50 (wt)": "1 ratio"}, {"binder": "B26", "IC50 (mut)/IC50 (wt)": "2 ratio"}, {"binder": "B27", "IC50 (mut)/IC50 (wt)": "1 ratio"}, {"binder": "B28", "IC50 (mut)/IC50 (wt)": "66 ratio"}, {"binder": "B29", "IC50 (mut)/IC50 (wt)": "6 ratio"}, {"binder": "B30", "IC50 (mut)/IC50 (wt)": "1 ratio"}, {"binder": "B31", "IC50 (mut)/IC50 (wt)": "25 ratio"}, {"binder": "B32", "IC50 (mut)/IC50 (wt)": "6 ratio"}, {"binder": "B33", "IC50 (mut)/IC50 (wt)": "2 ratio"}]}]}
